Article PMC6325244, “Regulation of the Peptidoglycan Polymerase Activity of PBP1b by Antagonist Actions of the Core Divisome Proteins FtsBLQ and FtsN” (mBio, 2019)

T1: PBP1b (E. coli, UniProt P02919 1-844, fluorescent ampicillin label added after elution)
T1 construct: PBP1b, E. coli, class A PBP, bifunctional glycosyltransferase/transpeptidase; Untagged as prey of HisFtsBLQ, HisFtsBL, HisFtsQ and HisFtsW; also called untagged PBP1b; source: E. coli C43 (DE3) or Lemo21 (DE3), coexpressed from Duet vectors, in detergent extract of membranes
T1 sequence (looked up): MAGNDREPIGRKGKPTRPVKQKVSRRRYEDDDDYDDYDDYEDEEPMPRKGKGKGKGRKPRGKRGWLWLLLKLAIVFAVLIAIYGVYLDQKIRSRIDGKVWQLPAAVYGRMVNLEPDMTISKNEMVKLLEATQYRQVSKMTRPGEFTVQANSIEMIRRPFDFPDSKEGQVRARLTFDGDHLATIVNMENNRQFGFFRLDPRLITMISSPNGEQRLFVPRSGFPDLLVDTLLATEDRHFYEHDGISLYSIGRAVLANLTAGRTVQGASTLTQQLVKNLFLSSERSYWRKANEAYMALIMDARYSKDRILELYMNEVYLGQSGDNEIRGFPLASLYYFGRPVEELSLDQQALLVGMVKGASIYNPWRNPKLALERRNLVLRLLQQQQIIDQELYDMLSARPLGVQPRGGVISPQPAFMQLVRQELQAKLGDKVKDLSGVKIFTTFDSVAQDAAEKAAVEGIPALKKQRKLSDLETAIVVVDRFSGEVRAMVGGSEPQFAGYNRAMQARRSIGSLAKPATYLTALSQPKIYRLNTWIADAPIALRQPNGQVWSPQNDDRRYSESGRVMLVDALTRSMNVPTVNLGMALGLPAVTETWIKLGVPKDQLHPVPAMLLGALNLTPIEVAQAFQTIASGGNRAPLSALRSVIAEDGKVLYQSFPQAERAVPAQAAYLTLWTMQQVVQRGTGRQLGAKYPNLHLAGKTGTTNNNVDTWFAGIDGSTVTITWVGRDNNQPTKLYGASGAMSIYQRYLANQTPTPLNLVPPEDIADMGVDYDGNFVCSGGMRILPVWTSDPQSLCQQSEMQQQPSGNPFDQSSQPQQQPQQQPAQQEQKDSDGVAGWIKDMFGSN


What was measured:
[1] = biological target: T1, PBP1b; assay: pull-down + SEC; PBP1b copurified with FtsN or FtsN W83L on a nickel column followed by gel filtration; SDS-PAGE, Coomassie, band amounts by Image Quant TL
[2] = biological target: T1, PBP1b

| Molecule | PBP1b/FtsN ratio in the copurified complex after gel filtration (parts PBP1b of 100 (PBP1b/FtsN 20/80)) [1] | fold decrease in stimulation of the GTase activity of PBP1b (continuous fluorescence assay), initial velocity against wild-type FtsN [2] [fold] | PBP1b/FtsN ratio in the copurified complex after gel filtration ([1]; partners not purified) |
| --- | --- | --- | --- |
| FtsN^W83L (from UniProt P29131 1-319) (natural protein) | 20 | 2 | – |
| FtsN (natural protein, E. coli, UniProt P29131 1-319, looked up, FtsN, E. coli, bitopic membrane protein; also called FtsN^WT; FtsNWT; source: E. coli C43 (DE3) or Lemo21 (DE3), coexpressed from Duet vectors, in detergent extract of membranes; also purified) MAQRDYVRRSQPAPSRRKKSTSRKKQRNLPAVSPAMVAIAAAVLVTFIGGLYFITHHKKEESETLQSQKVTGNGLPPKPEERWRYIKELESRQPGVRAPTEPSAGGEVKTPEQLTPEQRQLLEQMQADMRQQPTQLVEVPWNEQTPEQRQQTLQRQRQAQQLAEQQRLAQQSRTTEQSWQQQTRTSQAAPVQAQPRQSKPASSQQPYQDLLQTPAHTTAQSKPQQAAPVARAADAPKPTAEKKDERRWMVQCGSFRGAEQAETVRAQLAFEGFDSKITTNNGWNRVVIGPVKGKENADSTLNRLKMAGHTNCIRLAAGG | – | – | ~40 parts PBP1b of 100 (PBP1b/FtsN 40/60) |
